From patent publication US20220002417A1 (BAILI BIO CHENGDU PHARMACEUTICAL, published 2022)
Numbering of substitutions follows the chain as printed. One block for each binder: values may come before it.

Molecular target: T1, human PD-L1 extracellular domain (human, UniProt Q9NZQ7 19-238)
T1 construct: also called recombinant PD-L1; recombinant human PD-L1 extracellular domain protein
Test: BLI (Octet Red 96), antibody on anti-human Fc biosensor, PD-L1 ECD in solution, 1:1 global fit
Description: The binding kinetics of selected anti-PD-L1 antibodies AB1-AB5 and AB1HU-AB5HU was determined by bio-layer interferometry analysis on a ForteBio Octet Red 96 instrument. First, purified antibodies were produced by protein A chromatography using HEK-293 transiently-transfected antibody supernatants. This assay was performed by immobilizing the purified antibodies to anti-human Fc biosensors. PD-L1 binding to and dissociation from the biosensors was then observed at various concentrations of PD-L1. Specifically, eight anti-human Fc biosensors were placed into wells containing the same purified antibody for 5 minutes. Biosensors were equilibrated in kinetics buffer (Pall ForteBio) for 1 minute to establish a baseline. Association of PD-L1 was observed by placing the biosensors into wells containing various concentrations of human PD-L1 extracellular domain for 5 minutes. Dissociation was measured after transfer of the biosensors into kinetics buffer and monitoring the interferometry signals for 15 minutes. All steps of the assay were performed at 30° C. with shaking at 1000 RPM. The on and off rates (kon and koff) and the equilibrium binding constant KD were determined using the software provided by the manufacturer and were fit using a 1:1 binding global fit model comprising several of the concentrations tested.

T1 sequence (Q9NZQ7 19-238 limits assumed): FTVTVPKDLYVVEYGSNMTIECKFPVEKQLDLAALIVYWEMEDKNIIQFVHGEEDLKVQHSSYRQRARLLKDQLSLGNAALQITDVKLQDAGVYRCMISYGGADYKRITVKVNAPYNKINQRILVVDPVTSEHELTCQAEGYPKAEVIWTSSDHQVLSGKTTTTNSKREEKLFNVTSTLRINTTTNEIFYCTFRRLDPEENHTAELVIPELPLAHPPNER

Kd: 0.366 nM | koff: 0.000203 s⁻¹ | kon: 553000 M⁻¹ s⁻¹
B1: AB2HU (humanized form of antibody AB2) (antibody, human IgG1, kappa, V domains shown)
VH: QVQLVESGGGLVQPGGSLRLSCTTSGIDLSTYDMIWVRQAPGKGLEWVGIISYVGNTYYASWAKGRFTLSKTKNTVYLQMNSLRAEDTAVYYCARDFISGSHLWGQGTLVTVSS
VL: AYDMTQSPSSVSASVGDRVTINCQASESISSFLSWYQQKPGKAPKLLIFSASTLASGVPSRFSGSGSGTDFTLTISSLQPEDFATYYCQQGYSKSNVDNAFGGGTKVEIKR
notes: Humanized, human gamma-1 / kappa constant domains

Kd: 0.401 nM | koff: 0.000234 s⁻¹ | kon: 583000 M⁻¹ s⁻¹
B2: AB5HU (humanized form of antibody AB5) (antibody, human IgG1, kappa, V domains shown)
VH: QSVEESGGGLVQPGGSLRLSCTASGIDLNTYDMIWVRQAPGKGLEWVGIITYSGSRYYANWAKGRFTISKDNTKNTVYLQMNSLRAEDTAVYYCARDYMSGSHLWGQGTLVTVSS
VL: B1 VL with N22K, S28D, S30Y, S34A, F49H, T53S, S93G, S95N
notes: as for B1

Kd: 0.467 nM | koff: 0.000144 s⁻¹ | kon: 308000 M⁻¹ s⁻¹
B3: AB3 (rabbit/human chimeric anti-PD-L1 antibody) (antibody, human IgG1, kappa, V domains shown)
VH: QEQLEESGGGLVTPGGTLTLTCTVSGFSLSSYWMSWVRQAPGKGLEWIGVIDTNVYIYYANWAKGRFTISKTSTTVDLKITSPTTEDTATYFCARYVGNNDDYINLWGPGTLVTVSS
VL: AVLTQTPSPVSAAVGGTVSISCQSSQSVYNGYWLSWYQQKPGQPPKLLIYGASTLASGVPSRFKGSGSGTQFTLTINDVQCDDAATYYCLGSYTSSTENSFGGGTEVVVKR
notes: Rabbit variable domains on human IgG1 / human kappa constant domains; also called AB3 CHIMERIC

Kd: 1.01 nM | koff: 0.000422 s⁻¹ | kon: 417000 M⁻¹ s⁻¹
B4: AB4 (rabbit/human chimeric anti-PD-L1 antibody) (antibody, human IgG1, kappa, V domains shown)
VH: QSVEESGGRLVTPGTPLTLTCTVSGIDLSVINMGWVRQAPGEGLEWIGTITYVGNTYYASWAKGRFTISKTSTTVDLKITSPTTEDTATYFCARESGTIYYSYFNLWGQGTLVTVSS
VL: AFELTQTPASVSEPVGGTVTIKCQASESISNYLSWYQQIPGQPPNLLIYYASNLASGVPSRFKGSGSGTEFTLTISDLECADAATYYCQSYYGGGSAYTFGGGTEVVVKR
notes: Rabbit variable domains on human IgG1 / human kappa constant domains; also called AB4 CHIMERIC

Kd: 0.379 nM | koff: 0.000166 s⁻¹ | kon: 438000 M⁻¹ s⁻¹
B5: AB2 (rabbit/human chimeric anti-PD-L1 antibody) (antibody, human IgG1, kappa, V domains shown)
VH: QSLEESGGRLVTPGTPLTLTCTTSGIDLSTYDMIWVRQAPGKGLEYIGIISYVGNTYYASWAKGRFTLSKTSTTVDLRITSPTTEDTATYFCARDFISGSHLWGPGTLVTVSS
VL: AYDMTQTPASVSAAVGGTVTINCQASESISSFLSWYQQKPGQRPRLLIFSASTLASGVPSRFKGSGSGTEFTLTISGVECADAATYYCQQGYSKSNVDNAFGGGTEVVVKR
notes: Rabbit variable domains on human IgG1 / human kappa constant domains; also called AB2 CHIMERIC

Kd: 0.347 nM | koff: 0.00015 s⁻¹ | kon: 433000 M⁻¹ s⁻¹
B6: AB1 (rabbit/human chimeric anti-PD-L1 antibody) (antibody, human IgG1, kappa, V domains shown)
VH: QEQLVESGGGLVQPEGSLTLTCKASGFSFSSGYDMCWVRRAPGKGLEWIACIAAGSAGITYDANWAKGRFTISKTSSTTVTLQMTSLTAADTATYFCARSAFSFDYAMDLWGPGTLVTVSS
VL: DPVLTQTPASVEVAVGGTVTIKCQASQSISSHLNWYQQKPGQPPKLLIYKASTLASGVPSRFKGSGSGTEFTLTISSVQCDNAATYYCQQGYSWGNVDNVFGGGTEVVVKR
notes: Rabbit variable domains on human IgG1 / human kappa constant domains; purified by protein A from HEK-293 supernatants; also called AB1 CHIMERIC

Kd: 0.286 nM | koff: 0.000175 s⁻¹ | kon: 613000 M⁻¹ s⁻¹
B7: AB5 (rabbit/human chimeric anti-PD-L1 antibody) (antibody, human IgG1, kappa, V domains shown)
VH: QSVEESGGRLVTPGTPLTLTCTVSGIDLNTYDMIWVRQAPGKGLEWIGIITYSGSRYYANWAKGRFTISKTSTTVDLRITSPTTEDTATYFCARDYMSGSHLWGPGTLVTVSS
VL: AYDMTQTPASVEVAVGGTVTIKCQASEDIYSFLAWYQLKPGQSPKLLIHSASSLASGVSSRFKGSGSGTHFTLTISGVECADAATYYCQQGYGKNNVDNAFGGGTEVVVKR
notes: Rabbit variable domains on human IgG1 / human kappa constant domains; also called AB5 CHIMERIC

Kd: 0.422 nM | koff: 0.000239 s⁻¹ | kon: 568000 M⁻¹ s⁻¹
B8: AB1HU (humanized form of antibody AB1) (antibody, human IgG1, kappa, V domains shown)
VH: EVQLLESGGGLVQPGGSLRLSCAASGFSFSSGYDMCWVRQAPGKGLEWIACIAAGSAGITYDANWAKGRFTISRDNSKNTLYLQMNSLRAEDTAVYYCARSAFSFDYAMDLWGQGTLVTVSS
VL: DIQMTQSPSTLSASVGDRVTITCQASQSISSHLNWYQQKPGKAPKLLIYKASTLASGVPSRFSGSGSGTEFTLTISSLQPDDFATYYCQQGYSWGNVDNVFGGGTKVEIKR
notes: as for B1

Kd: 1.7 nM | koff: 0.000766 s⁻¹ | kon: 451000 M⁻¹ s⁻¹
B9: AB4HU (humanized form of antibody AB4) (antibody, human IgG1, kappa, V domains shown)
VH: EVQLVESGGGLVQPGGSLRLSCTVSGIDLSVINMGWVRQAPGKGLEWIGTITYVGNTYYASWAKGRFTISKTSTTVDLKITSPTTEDTAVYYCARESGTIYYSYFNLWGQGTLVTVSS
VL: AFELTQSPSSLSASVGDRVTIKCQASESISNYLSWYQQIPGKVPKLLIYYASNLASGVPSRFSGSGSGTDFTLTISSLQPEDVATYYCQSYYGGGSAYTFGGGTKVEIKR
notes: as for B1

Kd: 1.81 nM | koff: 0.000337 s⁻¹ | kon: 186000 M⁻¹ s⁻¹
B10: AB3HU (humanized form of antibody AB3) (antibody, human IgG1, kappa, V domains shown)
VH: EVQLVESGGGLVQPGGSLRLSCAASGFSLSSYWMSWVRQAPGKGLEWIGVIDTNVYIYYANWAKGRFTISRDNSKNTLYLQMNSLRAEDTAVYYCARYVGNNDDYINLWGQGTLVTVSS
VL: DIQMTQSPSTLSASVGDRVTITCQSSQSVYNGYWLSWYQQKPGKAPKLLIYGASTLASGVPSRFSGSGSGTEFTLTISSLQPDDFATYYCLGSYTSSTENSFGGGTKVEIKR
notes: as for B1
